The source of these data is patent US20110059889A1 (SYNTONIX PHARMACEUTICALS, published 2011).

In experiment [1] the target is T1, soluble human FcRn (shFcRn) (human, UniProt P55899 24-297; P61769 21-119).
T1 construct: Biotinylated for the ELISA, amine-coupled to a CM5 chip for SPR; also called biotinylated shFcRn
In words: IgG competition ELISA. A general note: In an ELISA, binding on a coated surface is turned into a signal by an enzyme label.
Description: (§1) The wells were coated with 100 μl/well of 1 μg/ml biotinylated-shFcRn in Buffer A. The plate was sealed and incubated at 37° C. for 2 hours. Afterwards, the plate was washed with 200 μl/well of Buffer B (Buffer B: 100 mM MES pH 6, 150 mM NaCl, 0.5% BSA IgG-free (Jackson ImmunoResearch, West Grove, Pa.), 0.05% Tween-20). […] To allow for mixing, the plate was rocked for 2 minutes, sealed and incubated at 37° C. for 2 hours. […] The plate was covered, incubated for 30 minutes at room temperature and washed 4 times with 200 μl/well of ice-cold buffer B. SureBlue TMB substrate solution (100 μl/well, KPL, Gaithersburg, Md.) was added and the plate was allowed to incubate at room temperature until color developed, which took 5 to 10 minutes. Once color developed, 100 μl/well of TMB stop solution (KPL, Gaithersburg, Md.) was added and the absorbance was measured at 450 nm. The data was plotted as absorbance vs. peptide concentration to derive the inhibitory concentration 50% (IC₅₀) values.

For experiment [2], the target named is T1, soluble human FcRn (shFcRn). In words: IgG competition ELISA. The source holds these as a separate data set.
Description: as §1
For experiment [3] the target is unchanged. In words: SPR pH 6; Peptide No. 114: Pen, NMeTyr (QRF-Pen-TGHFGGL-NMeTyr-PCNGP).
Description: (§2) The following steps were performed to cross-link soluble human or cynomolgus FcRn to the dextran surface of a CM5 sensor chip (Biacore AB, Uppsala, Sweden) by an amine coupling reaction involving 1-ethyl-(3-dimethylaminopropyl)-carbodiimide hydrochloride (EDC) (Biacore AB, Uppsala, Sweden) and N-hydroxysuccinimide (NHS) (Biacore AB, Uppsala, Sweden) as recommended by Biacore (BIAapplications Handbook, version AB, section 4.2, Biacore AB, Uppsala, Sweden). […] Residual sites on the FcRn flow cell were blocked with 1 M ethanolamine hydrochloride pH 8.5 (Biacore AB, Uppsala, Sweden). A control flow cell was blocked with ethanolamine for reference subtraction. For analysis of the monomeric peptides, FcRn was coated to a final density of 4000-5000 response units (RU). For analysis of the peptide dimers, FcRn was coated to a density of 2000-2500 RU. All SPR measurements were performed using a BIACORE 3000 Instrument (Biacore AB Uppsala, Sweden). For measurements done at either pH 6 or pH 7.4, experiments were performed in 50 mM phosphate, 100 mM sodium chloride, 0.01% surfactant P20 (Biacore AB, Uppsala, Sweden).
(§3) Ten, 2-fold dilutions of the peptide were injected over the FcRn-CM5 chip at a rate of 20 μl/min for 2 min. The peptide was dissociated from the chip for 2.5 minutes with buffer. […] Sensorgrams were generated and analyzed using BiaEval software version 3.1 (Biacore AB, Uppsala, Sweden). […]
Experiment [4] has the same target. In words: SPR pH 6.
Description: as §2, §3
Experiment [5] shares this target. The experiment is described as follows: IgG competition ELISA. This is another data set of the same source.
Description: as §1
The target is the same in experiment [6]. The experiment is described as follows: IgG competition ELISA. This is another data set of the same source.
Description: as §1
For experiment [7] the target is unchanged. In words: SPR pH 6. This is another data set of the same source.
Description: as §2
Ten, 2-fold dilutions of the peptide were injected over the FcRn-CM5 chip at a rate of 20 μl/min for 2 min. The peptide was dissociated from the chip for 2.5 minutes with buffer. Any remaining peptide was removed from the chip with a 30 second injection of HBS-P buffer (Biacore AB, Uppsala, Sweden) at a rate of 30 μl/min. Sensorgrams were generated and analyzed using BiaEval software version 3.1 (Biacore AB, Uppsala, Sweden). The equilibrium RU observed for each injection was plotted against concentration. The equilibrium KD values were derived by analysis of the plots using the steady state affinity model included in the BiaEval software.
Experiment [8] has the same target. In words: IgG competition ELISA. The source holds these as a separate data set.
Description: as §1
Experiment [9] shares this target. In words: IgG competition ELISA. The source holds these as a separate data set.
Description: as §1
For experiment [10] the target is unchanged. The experiment is described as follows: SPR pH 6; Peptide No. 113: Pen, NMeLeu (QRF-Pen-TGHFGG-NMeLeu-YPCNGP).
Description: as §2, §3
The target is the same in experiment [11]. The experiment is described as follows: SPR pH 6. This is another data set of the same source.
Description: as §2, §3
Experiment [12] has the same target. The experiment is described as follows: IgG competition ELISA. The source holds these as a separate data set.
Description: as §1
The target is the same in experiment [13]. In words: IgG competition ELISA. This is another data set of the same source.
Description: as §1

Like-named read-outs stand apart in the source and are kept apart here. Bridge positions count the residues as written; N and C are the ends. Square brackets hold non-standard residues; d marks the D form. Ends that are not written are not given here. NMeY = CN[C@@H](Cc1ccc(O)cc1)C(=O)O; NMeL = CN[C@@H](CC(C)C)C(=O)O; Pen = CC(C)(S)[C@H](N)C(=O)O; NMeA = CN[C@@H](C)C(=O)O; Sar = CNCC(=O)O

T1 sequence (P55899 24-297 limits assumed, chain 1 of 2): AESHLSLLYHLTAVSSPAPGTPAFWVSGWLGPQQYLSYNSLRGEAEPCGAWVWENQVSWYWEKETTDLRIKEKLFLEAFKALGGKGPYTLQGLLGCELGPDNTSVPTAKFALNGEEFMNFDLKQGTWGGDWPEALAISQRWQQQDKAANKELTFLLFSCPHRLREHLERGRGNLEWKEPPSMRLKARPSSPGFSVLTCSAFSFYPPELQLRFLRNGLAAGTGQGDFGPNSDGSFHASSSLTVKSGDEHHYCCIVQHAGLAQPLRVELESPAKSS
T1 sequence (P61769 21-119 limits assumed, chain 2 of 2): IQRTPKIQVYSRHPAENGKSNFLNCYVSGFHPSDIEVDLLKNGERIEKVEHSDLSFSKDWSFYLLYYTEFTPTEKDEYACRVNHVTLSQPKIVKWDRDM

B1: Peptide No. 288 (peptide)
peptide: RF[Pen]TGHFG[Sar][NMeL]YPCGG
modifications: disulfide 3-13; also: dimer: C-termini joined through a branching Lys
notes: C-terminally linked dimer; drawing CHEM-US-00132
In the case of B1, the IC50 in [1] was found to be 16 nM.

B2: Peptide No. 194 (peptide)
peptide: QRFCTGHFGXYPCNGP
modifications: Pen 4; X 10 = D,L-Friedinger's lactam (dipeptide mimetic in place of Gly-Leu); disulfide 4-13; C-terminal amide
For B2, the IC50 in experiment [2] was 4900 nM.

B3: Peptide No. 114 (peptide)
peptide: QRF[Pen]TGHFGGL[NMeY]PCNGP-NH2
modifications: disulfide 4-14; N-terminus assumed
SMILES: CC(C)C[C@@H]1NC(=O)CNC(=O)CNC(=O)[C@H](Cc2ccccc2)NC(=O)[C@H](Cc2c[nH]cn2)NC(=O)CNC(=O)[C@H]([C@@H](C)O)NC(=O)[C@@H](NC(=O)[C@H](Cc2ccccc2)NC(=O)[C@H](CCCNC(=N)N)NC(=O)[C@@H](N)CCC(N)=O)C(C)(C)SSC[C@@H](C(=O)N[C@@H](CC(N)=O)C(=O)NCC(=O)N2CCC[C@H]2C(N)=O)NC(=O)[C@@H]2CCCN2C(=O)[C@H](Cc2ccc(O)cc2)N(C)C1=O
For B3, in experiment [3], the Kd was found to be 92000 nM.

B4: Peptide No. 216 (peptide)
peptide: QRFCTGHFGXYPCNGP
modifications: Pen 4; X 10 = L,L-Friedinger's lactam (dipeptide mimetic in place of Gly-Leu); disulfide 4-13; C-terminal amide
As to B4, in [2], the IC50 is 19000 nM.

On to QRFCTGHFGGLXPCNGP (Pen 4; 3-pyridylAla 12; disulfide 4-14; C-terminal amide) [Peptide No. 67], for which, in [4], the Kd amounted to 34000 nM. Besides, in experiment [5], the IC50 was found to be 92000 nM.

B5: Peptide No. 97 (peptide)
peptide: QRY[Pen]TGHFGGLYPCNGP-NH2
modifications: disulfide 4-14; N-terminus assumed
SMILES: CC(C)C[C@@H]1NC(=O)CNC(=O)CNC(=O)[C@H](Cc2ccccc2)NC(=O)[C@H](Cc2c[nH]cn2)NC(=O)CNC(=O)[C@H]([C@@H](C)O)NC(=O)[C@@H](NC(=O)[C@H](Cc2ccc(O)cc2)NC(=O)[C@H](CCCNC(=N)N)NC(=O)[C@@H](N)CCC(N)=O)C(C)(C)SSC[C@@H](C(=O)N[C@@H](CC(N)=O)C(=O)NCC(=O)N2CCC[C@H]2C(N)=O)NC(=O)[C@@H]2CCCN2C(=O)[C@H](Cc2ccc(O)cc2)NC1=O
B5 displayed a half-inhibitory concentration (IC50) in [6] of 2400 nM.

B6: Peptide No. 98 (peptide)
peptide: QRW[Pen]TGHFGGLYPCNGP-NH2
modifications: disulfide 4-14; N-terminus assumed
SMILES: CC(C)C[C@@H]1NC(=O)CNC(=O)CNC(=O)[C@H](Cc2ccccc2)NC(=O)[C@H](Cc2c[nH]cn2)NC(=O)CNC(=O)[C@H]([C@@H](C)O)NC(=O)[C@@H](NC(=O)[C@H](Cc2c[nH]c3ccccc23)NC(=O)[C@H](CCCNC(=N)N)NC(=O)[C@@H](N)CCC(N)=O)C(C)(C)SSC[C@@H](C(=O)N[C@@H](CC(N)=O)C(=O)NCC(=O)N2CCC[C@H]2C(N)=O)NC(=O)[C@@H]2CCCN2C(=O)[C@H](Cc2ccc(O)cc2)NC1=O
B6 registered an IC50 in experiment [6] of 1500 nM.

B7: Peptide No. 195 (peptide)
peptide: QRF[Pen]GGHFGGLYPCNGP-NH2
modifications: disulfide 4-14; N-terminus assumed
SMILES: CC(C)C[C@@H]1NC(=O)CNC(=O)CNC(=O)[C@H](Cc2ccccc2)NC(=O)[C@H](Cc2c[nH]cn2)NC(=O)CNC(=O)CNC(=O)[C@@H](NC(=O)[C@H](Cc2ccccc2)NC(=O)[C@H](CCCNC(=N)N)NC(=O)[C@@H](N)CCC(N)=O)C(C)(C)SSC[C@@H](C(=O)N[C@@H](CC(N)=O)C(=O)NCC(=O)N2CCC[C@H]2C(N)=O)NC(=O)[C@@H]2CCCN2C(=O)[C@H](Cc2ccc(O)cc2)NC1=O
Take B7: the affinity in experiment [7], expressed as Kd, was 760 nM.

B8: Peptide No. 213 (peptide)
peptide: QRF[Pen][NMeA]GHFGGLYPCNGP-NH2
modifications: disulfide 4-14; N-terminus assumed
SMILES: CC(C)C[C@@H]1NC(=O)CNC(=O)CNC(=O)[C@H](Cc2ccccc2)NC(=O)[C@H](Cc2c[nH]cn2)NC(=O)CNC(=O)[C@H](C)N(C)C(=O)[C@@H](NC(=O)[C@H](Cc2ccccc2)NC(=O)[C@H](CCCNC(=N)N)NC(=O)[C@@H](N)CCC(N)=O)C(C)(C)SSC[C@@H](C(=O)N[C@@H](CC(N)=O)C(=O)NCC(=O)N2CCC[C@H]2C(N)=O)NC(=O)[C@@H]2CCCN2C(=O)[C@H](Cc2ccc(O)cc2)NC1=O
Consider B8, for which the dissociation constant Kd in experiment [7] was 1000 nM. The same molecule registered an IC50 in experiment [8] of 5500 nM.

B9: Peptide No. 96 (peptide)
peptide: QR[dF][Pen]TGHFGGLYPCNGP-NH2
modifications: disulfide 4-14; N-terminus assumed
SMILES: CC(C)C[C@@H]1NC(=O)CNC(=O)CNC(=O)[C@H](Cc2ccccc2)NC(=O)[C@H](Cc2c[nH]cn2)NC(=O)CNC(=O)[C@H]([C@@H](C)O)NC(=O)[C@@H](NC(=O)[C@@H](Cc2ccccc2)NC(=O)[C@H](CCCNC(=N)N)NC(=O)[C@@H](N)CCC(N)=O)C(C)(C)SSC[C@@H](C(=O)N[C@@H](CC(N)=O)C(=O)NCC(=O)N2CCC[C@H]2C(N)=O)NC(=O)[C@@H]2CCCN2C(=O)[C@H](Cc2ccc(O)cc2)NC1=O
Consider B9, for which the IC50 in experiment [6] was 11400 nM.

B10: Peptide No. 113 (peptide)
peptide: QRF[Pen]TGHFGG[NMeL]YPCNGP-NH2
modifications: disulfide 4-14; N-terminus assumed
SMILES: CC(C)C[C@H]1C(=O)N[C@@H](Cc2ccc(O)cc2)C(=O)N2CCC[C@H]2C(=O)N[C@H](C(=O)N[C@@H](CC(N)=O)C(=O)NCC(=O)N2CCC[C@H]2C(N)=O)CSSC(C)(C)[C@H](NC(=O)[C@H](Cc2ccccc2)NC(=O)[C@H](CCCNC(=N)N)NC(=O)[C@@H](N)CCC(N)=O)C(=O)N[C@@H]([C@@H](C)O)C(=O)NCC(=O)N[C@@H](Cc2c[nH]cn2)C(=O)N[C@@H](Cc2ccccc2)C(=O)NCC(=O)NCC(=O)N1C
In experiment [9], B10 showed an IC50 of 1600 nM. Further, the Kd in experiment [10] turned out to be 86 nM.

B11: Peptide No. 142 (peptide)
peptide: RF[Pen]TGHFG[dP]LYPC-NH2
modifications: disulfide 3-13; N-terminus assumed
SMILES: CC(C)C[C@@H]1NC(=O)[C@H]2CCCN2C(=O)CNC(=O)[C@H](Cc2ccccc2)NC(=O)[C@H](Cc2c[nH]cn2)NC(=O)CNC(=O)[C@H]([C@@H](C)O)NC(=O)[C@@H](NC(=O)[C@H](Cc2ccccc2)NC(=O)[C@@H](N)CCCNC(=N)N)C(C)(C)SSC[C@@H](C(N)=O)NC(=O)[C@@H]2CCCN2C(=O)[C@H](Cc2ccc(O)cc2)NC1=O
In turn, B11 gave a dissociation constant (Kd) in experiment [11] of 140 nM. The same molecule gave an IC50 in experiment [12] of 1500 nM.

B12: Peptide No. 99 (peptide)
peptide: RF[Pen]TGHFGGLYPC-NH2
modifications: disulfide 3-13; N-terminus assumed
SMILES: CC(C)C[C@@H]1NC(=O)CNC(=O)CNC(=O)[C@H](Cc2ccccc2)NC(=O)[C@H](Cc2c[nH]cn2)NC(=O)CNC(=O)[C@H]([C@@H](C)O)NC(=O)[C@@H](NC(=O)[C@H](Cc2ccccc2)NC(=O)[C@@H](N)CCCNC(=N)N)C(C)(C)SSC[C@@H](C(N)=O)NC(=O)[C@@H]2CCCN2C(=O)[C@H](Cc2ccc(O)cc2)NC1=O
On to B12, for which the IC50 in experiment [12] and in experiment [13] was 2000 nM each time.

For orientation: IC50 means the concentration that inhibits the measured activity by half. A lower IC50 goes with greater potency in that assay. In general, Kd refers to the constant that tells how readily two partners part at equilibrium.
